We go through 2 molecules from US20240059789A1 (Janssen / Centocor, published 2024).

Assay [1] has as its target T1, Human PSMA on prostate cancer cell lines (C4-2B, 22RV1) (human, UniProt Q04609 1-750). Description: cell-based or functional assay.
For assay [2], the target named is T1, Human PSMA on prostate cancer cell …. Description: cell-based or functional assay. The source holds these as a separate data set.

T1 sequence (Q04609 whole entry): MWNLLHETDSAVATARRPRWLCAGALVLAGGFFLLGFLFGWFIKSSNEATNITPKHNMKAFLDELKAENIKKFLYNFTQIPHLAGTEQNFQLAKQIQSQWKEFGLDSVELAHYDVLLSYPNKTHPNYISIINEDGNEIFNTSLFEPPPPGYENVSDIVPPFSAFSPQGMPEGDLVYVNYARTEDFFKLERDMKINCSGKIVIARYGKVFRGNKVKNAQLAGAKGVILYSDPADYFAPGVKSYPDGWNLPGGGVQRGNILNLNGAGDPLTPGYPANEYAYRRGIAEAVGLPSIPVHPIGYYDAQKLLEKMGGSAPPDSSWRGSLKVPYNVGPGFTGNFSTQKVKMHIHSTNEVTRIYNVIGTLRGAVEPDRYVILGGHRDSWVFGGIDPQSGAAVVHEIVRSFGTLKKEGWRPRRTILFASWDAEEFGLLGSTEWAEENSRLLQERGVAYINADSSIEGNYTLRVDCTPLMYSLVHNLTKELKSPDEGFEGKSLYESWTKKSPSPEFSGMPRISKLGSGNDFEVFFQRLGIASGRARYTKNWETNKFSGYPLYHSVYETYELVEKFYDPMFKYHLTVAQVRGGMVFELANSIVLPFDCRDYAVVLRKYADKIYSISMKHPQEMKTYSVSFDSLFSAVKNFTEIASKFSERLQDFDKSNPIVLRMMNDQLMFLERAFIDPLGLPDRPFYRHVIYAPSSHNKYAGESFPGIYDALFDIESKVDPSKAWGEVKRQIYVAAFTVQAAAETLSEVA

B1: PS3B1357 (bispecific antibody, human IgG1, lambda, L234A L235A)
heavy 1: QVQLQQSGPGLVKPSQTLSLTCAISGDSVFNNNAAWSWIRQSPSRGLEWLGRTYYRSKWLYDYAVSVKSRITINPDTSKNQFSLQLNSVTPEDTAVYYCARGYSSSFDYWGQGTLVTVSSASTKGPSVFPLAPSSKSTSGGTAALGCLVKDYFPEPVTVSWNSGALTSGVHTFPAVLQSSGLYSLSSVVTVPSSSLGTQTYICNVNHKPSNTKVDKKVEPKSCDKTHTCPPCPAPEAAGGPSVFLFPPKPKDTLMISRTPEVTCVVVSVSHEDPEVKFNWYVDGVEVHNAKTKPREEQYNSTYRVVSVLTVLHQDWLNGKEYKCKVSNKALPAPIEKTISKAKGQPREPQVYTLPPSREEMTKNQVSLTCLVKGFYPSDIAVEWESNGQPENNYKTTPPVLDSDGSFLLYSKLTVDKSRWQQGNVFSCSVMHEALHNHYTQKSLSLSPGK
light 1: QSALTQPASVSGSPGQSITISCTGTSSNIGTYKFVSWYQQHPGKAPKVMIYEVSKRPSGVSNRFSGSKSGNTASLTISGLQAEDEADYYCVSYAGSGTLLFGGGTKLTVLGQPKAAPSVTLFPPSSEELQANKATLVCLISDFYPGAVTVAWKADSSPVKAGVETTTPSKQSNNKYAASSYLSLTPEQWKSHRSYSCQVTHEGSTVEKTVAPTECS
heavy 2: EVQLVESGGGLVQPGGSLRLSCAASGFTFSSYAMSWVRQAPGKGLEWVSAISGGIGSTYYADSVKGRFTISRDNSKNTLWLQMNSLRAEDTAVYYCAKDGVGATPYYFDYWGQGTLVTVSSASTKGPSVFPLAPSSKSTSGGTAALGCLVKDYFPEPVTVSWNSGALTSGVHTFPAVLQSSGLYSLSSVVTVPSSSLGTQTYICNVNHKPSNTKVDKKVEPKSCDKTHTCPPCPAPEAAGGPSVFLFPPKPKDTLMISRTPEVTCVVVSVSHEDPEVKFNWYVDGVEVHNAKTKPREEQYNSTYRVVSVLTVLHQDWLNGKEYKCKVSNKALPAPIEKTISKAKGQPREPQVYTLPPSREEMTKNQVSLTCLVKGFYPSDIAVEWESNGQPENNYKTTPPVLDSDGSFFLYSRLTVDKSRWQQGNVFSCSVMHEALHNHYTQKSLSLSPGK
light 2: QSVLTQPPSVSAAPGQKVTISCSGSSSNIGINYVSWYQQLPGTAPKLLIYDNNKRPSGIPDRFSGSKSGTSATLGITGLQTGDEADYYCGTWDSSLSAVVFGGGTKLTVLGQPKAAPSVTLFPPSSEELQANKATLVCLISDFYPGAVTVAWKADSSPVKAGVETTTPSKQSNNKYAASSYLSLTPEQWKSHRSYSCQVTHEGSTVEKTVAPTECS
With B1, in assay [1], the “% cytolysis at 120 hours (C4-2B, xCelligence, donor #1) at 80 pM” value is 100%; the “% cytolysis at 120 hours (C4-2B, xCelligence, donor #1) at 0.4 nM” value was found to be 100%; the “% cytolysis at 120 hours (C4-2B, xCelligence, donor #1) at 2 nM” value came to 100%; the “% cytolysis at 120 hours (C4-2B, xCelligence, donor #1) at 10 nM” value was found to be 100%. Moreover, in assay [1], the “% cytolysis at 120 hours (C4-2B, xCelligence, donor #1) at 50 nM” value amounted to 100%; the “% cytolysis at 120 hours (C4-2B, xCelligence, donor #2) at 80 pM” value turned out to be 100%; the “% cytolysis at 120 hours (C4-2B, xCelligence, donor #2) at 0.4 nM” value was found to be 100%; the “% cytolysis at 120 hours (C4-2B, xCelligence, donor #2) at 2 nM” value was determined as 100%. In assay [1], the “% cytolysis at 120 hours (C4-2B, xCelligence, donor #2) at 10 nM” value came out at 100%; the “% cytolysis at 120 hours (C4-2B, xCelligence, donor #2) at 50 nM” value was 100%; the “% cytolysis at 120 hours (C4-2B, xCelligence, donor #3) at 80 pM” value came out at 100%; the “% cytolysis at 120 hours (C4-2B, xCelligence, donor #3) at 0.4 nM” value came to 100%. For the same molecule, in assay [1], the “% cytolysis at 120 hours (C4-2B, xCelligence, donor #3) at 2 nM” value came to 100%; the “% cytolysis at 120 hours (C4-2B, xCelligence, donor #3) at 10 nM” value was 100%; the “% cytolysis at 120 hours (C4-2B, xCelligence, donor #3) at 50 nM” value was 100%. In addition, in assay [2], the “Cytotoxicity (C4-2B cells, 3:1 E:T ratio, 5 Day) at 0.3 nM” value worked out at 96%; the “Cytotoxicity (C4-2B cells, 3:1 E:T ratio, 5 Day) at 1.1 nM” value is 96%; the “Cytotoxicity (C4-2B cells, 3:1 E:T ratio, 5 Day) at 3.3 nM” value was 95%; the “Cytotoxicity (C4-2B cells, 3:1 E:T ratio, 5 Day) at 10 nM” value was 96%. In assay [2], the “Cytotoxicity (C4-2B cells, 3:1 E:T ratio, 5 Day) at 30 nM” value stood at 91%.

B2: PS3B1352 (bispecific antibody, human IgG1, lambda, L234A L235A)
heavy 1: QVQLQQSGPRLVRPSQTLSLTCAISGDSVFNNNAAWSWIRQSPSRGLEWLGRTYYRSKWLYDYAVSVKSRITVNPDTSRNQFTLQLNSVTPEDTALYYCARGYSSSFDYWGQGTLVTVSSASTKGPSVFPLAPSSKSTSGGTAALGCLVKDYFPEPVTVSWNSGALTSGVHTFPAVLQSSGLYSLSSVVTVPSSSLGTQTYICNVNHKPSNTKVDKKVEPKSCDKTHTCPPCPAPEAAGGPSVFLFPPKPKDTLMISRTPEVTCVVVSVSHEDPEVKFNWYVDGVEVHNAKTKPREEQYNSTYRVVSVLTVLHQDWLNGKEYKCKVSNKALPAPIEKTISKAKGQPREPQVYTLPPSREEMTKNQVSLTCLVKGFYPSDIAVEWESNGQPENNYKTTPPVLDSDGSFLLYSKLTVDKSRWQQGNVFSCSVMHEALHNHYTQKSLSLSPGK
light 1: QSALTQPASVSGSPGQSITISCTGTSSNIGTYKFVSWYQQHPDKAPKVLLYEVSKRPSGVSSRFSGSKSGNTASLTISGLQAEDQADYHCVSYAGSGTLLFGGGTKLTVLGQPKAAPSVTLFPPSSEELQANKATLVCLISDFYPGAVTVAWKADSSPVKAGVETTTPSKQSNNKYAASSYLSLTPEQWKSHRSYSCQVTHEGSTVEKTVAPTECS
heavy 2: EVQLVESGGGLVQPGGSLRLSCAASGFTFSSYAMSWVRQAPGKGLEWVSAISGGIGSTYYADSVKGRFTISRDNSKNTLWLQMNSLRAEDTAVYYCAKDGVGATPYYFDYWGQGTLVTVSSASTKGPSVFPLAPSSKSTSGGTAALGCLVKDYFPEPVTVSWNSGALTSGVHTFPAVLQSSGLYSLSSVVTVPSSSLGTQTYICNVNHKPSNTKVDKKVEPKSCDKTHTCPPCPAPEAAGGPSVFLFPPKPKDTLMISRTPEVTCVVVSVSHEDPEVKFNWYVDGVEVHNAKTKPREEQYNSTYRVVSVLTVLHQDWLNGKEYKCKVSNKALPAPIEKTISKAKGQPREPQVYTLPPSREEMTKNQVSLTCLVKGFYPSDIAVEWESNGQPENNYKTTPPVLDSDGSFFLYSRLTVDKSRWQQGNVFSCSVMHEALHNHYTQKSLSLSPGK
light 2: QSVLTQPPSVSAAPGQKVTISCSGSSSNIGNNYVSWYQQLPGTAPKLLIYDNNKRPSGIPDRFSGSKSGTSATLGITGLQTGDEADYYCGTWDSSLSAYVFGTGTKVTVLGQPKAAPSVTLFPPSSEELQANKATLVCLISDFYPGAVTVAWKADSSPVKAGVETTTPSKQSNNKYAASSYLSLTPEQWKSHRSYSCQVTHEGSTVEKTVAPTECS
On to B2, for which, in assay [1], the “% cytolysis at 120 hours (C4-2B, xCelligence, donor #1) at 80 pM” value was 77%; the “% cytolysis at 120 hours (C4-2B, xCelligence, donor #1) at 0.4 nM” value is 100%; the “% cytolysis at 120 hours (C4-2B, xCelligence, donor #1) at 2 nM” value turned out to be 100%; the “% cytolysis at 120 hours (C4-2B, xCelligence, donor #1) at 10 nM” value stood at 100%. In assay [1], the “% cytolysis at 120 hours (C4-2B, xCelligence, donor #1) at 50 nM” value is 100%; the “% cytolysis at 120 hours (C4-2B, xCelligence, donor #2) at 80 pM” value was 0%; the “% cytolysis at 120 hours (C4-2B, xCelligence, donor #2) at 0.4 nM” value was 100%; the “% cytolysis at 120 hours (C4-2B, xCelligence, donor #2) at 2 nM” value was 100%. Besides, in assay [1], the “% cytolysis at 120 hours (C4-2B, xCelligence, donor #2) at 10 nM” value came out at 100%; the “% cytolysis at 120 hours (C4-2B, xCelligence, donor #2) at 50 nM” value turned out to be 100%; the “% cytolysis at 120 hours (C4-2B, xCelligence, donor #3) at 80 pM” value was found to be 9%; the “% cytolysis at 120 hours (C4-2B, xCelligence, donor #3) at 0.4 nM” value amounted to 100%. In assay [1], the “% cytolysis at 120 hours (C4-2B, xCelligence, donor #3) at 2 nM” value stood at 100%; the “% cytolysis at 120 hours (C4-2B, xCelligence, donor #3) at 10 nM” value was found to be 100%; the “% cytolysis at 120 hours (C4-2B, xCelligence, donor #3) at 50 nM” value turned out to be 100%. For the same molecule, in assay [2], the “Cytotoxicity (C4-2B cells, 3:1 E:T ratio, 5 Day) at 0.3 nM” value came to 65%; the “Cytotoxicity (C4-2B cells, 3:1 E:T ratio, 5 Day) at 1.1 nM” value was 88%; the “Cytotoxicity (C4-2B cells, 3:1 E:T ratio, 5 Day) at 3.3 nM” value was 89%; the “Cytotoxicity (C4-2B cells, 3:1 E:T ratio, 5 Day) at 10 nM” value was 85%. For the same molecule, the “Cytotoxicity (C4-2B cells, 3:1 E:T ratio, 5 Day) at 30 nM” value in assay [2] was found to be 79%.
